T1: CS1 FC融合标签蛋白 (CS1 Fc fusion tag protein, expressed in 293F cells) (UniProt Q9NQ25)
T1 sequence (looked up): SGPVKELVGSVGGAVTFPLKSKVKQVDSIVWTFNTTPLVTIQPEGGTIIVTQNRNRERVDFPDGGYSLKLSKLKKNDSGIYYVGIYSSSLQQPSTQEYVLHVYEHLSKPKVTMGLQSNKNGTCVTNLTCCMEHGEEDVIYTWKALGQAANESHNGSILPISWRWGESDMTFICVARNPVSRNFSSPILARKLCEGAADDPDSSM


Columns and labels:
[1] = biological target: T1, CS1 FC融合标签蛋白 (CS1 Fc fusion tag protein, expressed in 293F cells); experiment: ELISA, CS1 protein coated at 1 ug/ml, purified antibody at dilution 3125k
[2] = biological target: T1, CS1 FC融合标签蛋白 (CS1 Fc fusion tag protein, expressed in 293F cells); experiment: indirect ELISA, CS1 protein coated at 1 ug/ml, B cell culture supernatant, goat anti-rabbit IgG-HRP
[3] = biological target: T1, CS1 FC融合标签蛋白 (CS1 Fc fusion tag protein, expressed in 293F cells); experiment: ELISA, CS1 protein coated at 1 ug/ml, purified antibody at dilution 25K
[4] = biological target: T1, CS1 FC融合标签蛋白 (CS1 Fc fusion tag protein, expressed in 293F cells); experiment: ELISA, CS1 protein coated at 1 ug/ml, purified antibody at dilution 625K
[5] = biological target: T1, CS1 FC融合标签蛋白 (CS1 Fc fusion tag protein, expressed in 293F cells); experiment: ELISA, CS1 protein coated at 1 ug/ml, purified antibody at dilution 15625k
[6] = biological target: T1, CS1 FC融合标签蛋白 (CS1 Fc fusion tag protein, expressed in 293F cells); experiment: ELISA, CS1 protein coated at 1 ug/ml, purified antibody at dilution 125K
[7] = biological target: T1, CS1 FC融合标签蛋白 (CS1 Fc fusion tag protein, expressed in 293F cells); experiment: ELISA, CS1 protein coated at 1 ug/ml, purified antibody at dilution 5K
[8] = biological target: T1, CS1 FC融合标签蛋白 (CS1 Fc fusion tag protein, expressed in 293F cells); experiment: ELISA, CS1 protein coated at 1 ug/ml, purified antibody at dilution 1K

| ELISA OD [1] | OD450值 [2] [OD450] | ELISA OD [3] | ELISA OD [4] | ELISA OD [5] | ELISA OD [6] | ELISA OD [7] | ELISA OD [8] | Binder |
| --- | --- | --- | --- | --- | --- | --- | --- | --- |
| 0.161 | 2.03 | 2.91 | 0.276 | 0.108 | 0.98 | 3.95 | – | 命名为2B3的兔重组单克隆抗体 (rabbit recombinant monoclonal antibody 2B3) (antibody, V domains shown) VH: QSVEESGGRLVTPGTPLTLTCTVSGFSLSAYAMGWFRQAPGKGLEYIGIISDSASTFYATWAKGRFTISRTSSTMVDLKMTSPTTEDTATYFCARAYYVVDNDSPFNMWGPGTVVTVS VL: VMTQTPSSVSAAVGGTVTINCQASENIYSSLAWYQQKPGQPPKLLIYAASKLESGVPSRFKGSRSETDFTLTISDLECDDAATYYCQSYYDTGRASFAFGGGTEVVVK |
| 0.209 | 2.13 | 3.45 | 0.522 | 0.124 | 2.02 | – | – | 命名为1D12的兔重组单克隆抗体 (rabbit recombinant monoclonal antibody 1D12) (antibody, V domains shown) VH: QSVEESGGRLVTPGTPLTLTCTVSGFSLSSYGMIWVRQAPGKGLEWIGSINTDGSTYYATWAKGRFTISRTSTTVDLKITSPTTEDTATYFCARGYPGYITDSYYYFNIWGPGTLVTVS VL: DVVLTQTPASVEAAVRGTVTIKCQASQSISSYLSWYQQKPGQPPKLLIYRASTLESGVPSRFKGSGSGTEFTLTITDLECADAATYYCQCTYGTFHSSGYGFGGGTGVVVK |
| 0.153 | 1.52 | 2.39 | 0.32 | 0.11 | 1.18 | 3.83 | 3.95 | 命名为1H2的兔重组单克隆抗体 (rabbit recombinant monoclonal antibody 1H2) (antibody, V domains shown) VH: QSVEESRGGLIKPTDTLTLTCTVSGFSLSNYGVSWVRQAPGNGLEYIGFIGTIGATLYANWAKSRSTITRNTNLNTVTLKMTSLTAADTATYFCARGIYGDIYVYAFDIWGPGTLVTVSS VL: AAVLTQTPSPVSAAVGGTVTISCQASQSVRDNGDLAWYQQKPGQPPKLLIYDVSALASGVPSRFKGRGSGTQFTLTISDLECDDAATYSCAGGYIAGSDRWVFGGGTEVVVK |

— patent CN115433278A
